Laboratory results as given in patent US6319685A (Unigene Laboratories, Inc., priority 1987, dated 2001).
Where two headings read alike, the source gives them in different places. No end group written: not given here.

Key:
[1] = biological activity of amidated recombinant hormones versus synthetic hormone
alpha-amidating enzyme [2] = target: T1, alpha-amidating enzyme (Rattus norvegicus, UniProt P14925); assay: kinetic studies of alpha-amidating enzyme with monodansyl L-Tyr-Val-Gly; assay type: biochemical; conditions: pH 7.0, 37° C.
T1 sequence (P14925 36-976): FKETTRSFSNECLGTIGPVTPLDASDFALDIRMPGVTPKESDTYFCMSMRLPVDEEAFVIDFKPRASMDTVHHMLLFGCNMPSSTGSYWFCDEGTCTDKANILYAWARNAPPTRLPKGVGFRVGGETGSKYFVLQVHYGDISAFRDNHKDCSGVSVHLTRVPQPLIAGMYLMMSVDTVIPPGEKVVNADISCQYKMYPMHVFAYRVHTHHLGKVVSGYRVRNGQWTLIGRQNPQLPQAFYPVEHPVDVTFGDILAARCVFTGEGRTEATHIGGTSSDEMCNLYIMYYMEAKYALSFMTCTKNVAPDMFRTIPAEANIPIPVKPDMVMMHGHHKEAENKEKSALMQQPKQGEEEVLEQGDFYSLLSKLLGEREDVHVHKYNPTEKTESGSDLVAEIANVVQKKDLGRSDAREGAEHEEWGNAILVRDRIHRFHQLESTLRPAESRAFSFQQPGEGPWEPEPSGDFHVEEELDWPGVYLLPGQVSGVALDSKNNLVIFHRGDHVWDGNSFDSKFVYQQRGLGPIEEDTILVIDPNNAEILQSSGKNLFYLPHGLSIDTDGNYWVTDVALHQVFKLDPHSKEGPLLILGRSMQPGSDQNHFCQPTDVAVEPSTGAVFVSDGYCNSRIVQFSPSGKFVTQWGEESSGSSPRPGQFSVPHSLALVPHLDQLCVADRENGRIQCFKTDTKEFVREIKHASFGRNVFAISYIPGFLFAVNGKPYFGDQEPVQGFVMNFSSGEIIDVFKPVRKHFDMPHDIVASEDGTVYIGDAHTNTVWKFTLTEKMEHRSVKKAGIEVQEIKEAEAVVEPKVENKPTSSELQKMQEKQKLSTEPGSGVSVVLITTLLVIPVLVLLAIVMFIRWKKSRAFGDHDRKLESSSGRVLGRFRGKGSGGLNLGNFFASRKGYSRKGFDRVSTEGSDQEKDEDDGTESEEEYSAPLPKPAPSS
From the text: These assays incorporate the use of synthetic tripeptide substrates. Amidation of these substrates is conveniently monitored by separation and quantification of the product ([…] and substrate tripeptide) using HPLC. The most sensitive of the assays developed utilizes monodansyl L-Tyr-Val-Gly as substrate. This compound can be detected at extremely low levels because the dansyl group is fluorescent.
In particular, the kinetic parameters Km and Vmax have been determined by examination of the effect of variation of substrate concentration upon enzymatic activity. […] The smaller the Km the greater the affinity. Vmax is the maximum velocity at which the enzyme will convert the substrate to product and is observed at saturating concentrations of substrate (i.e., the substrate is present in large excess over the enzyme).
In a typical amidation enzyme assay, the reation system (50 ul) would comprise enzyme (approximately 7 μg), dansyl L-Tyr-Val-Gly (up to 40 μM), L-ascorbic acid (3 mM), catalase (0 to 100 μg ml^-1), and copper sulfate (0 to 2 uM) in 60 mM TES buffer at pH 7.0. The reaction is initiated at 37° C. by the addition of enzyme and terminated after a defined period of time by the addition of 0.1 M EDTA (final concentration), which binds up copper making it unavailable for the enzyme.

alpha-amidating enzyme [3] = target: T1, alpha-amidating enzyme; assay: comparison of assay systems / kinetic analysis of amidation of dansyl-Tyr-Val-Gly, D-Tyr-Val-Gly and 125I-D-Tyr-Val-Gly; assay type: biochemical
Description: I. Monodansyl L-Tyr-Val-Gly
The concentration of enzyme used in all experiments was left constant except where noted.
(§1) The reaction mixture for the conversion of the monodansyl substrate contained:
5 μl of 100 ug/mL bovine pancreatic catalase
5 μl containing 2 nmoles of substrate
The samples were prepared in duplicate and incubated at 37° C. for 10, 20 and 30 minutes time periods. The enzymatic reaction was halted by the addition of 10 ul 500 mM EDTA. Substrate and product were separated by RP HPLC using an Hewlett Packard-1090 liquid chromatography system, and quantitation was achieved using a HP-3392 integrator.
D-Tyr-Val-Gly and D-Tyr-Val-NH2 were iodinated using iodobeads from Pierce Chemical Company. The radiolabeied substrate and product were used to calibrate a sulfyl-propyl cation-exchange column. ^125 I D-Tyr-Val-Gly was added to 650 uM D-Tyr-Val-Gly and used as the substrate. The reaction mixture for the conversion of monodansyl substrate contained:
Samples were incubated for 10, 20, 30 minutes at 37° C. The reaction was stopped by addition of 500 mM EDTA. […] The conversion of radiolabeled substrate to product was linear with respect to time.
The reaction conditions used for the amidation of D-Tyr-Val-Gly are identical to those described for the dansyl and iodinated substrates. Substrate concentration in the reaction mixture was 650 uM. Separation of substrate and product is achieved by gradient elution on RP-HPLC using a HP-1090 liquid chromatography system. The column effluents were monitored at 280 nm. The level of sensitivity for this assay is much lower than that for either dansyl or iodinated substrates.
Furthermore, a somewhat more rigorous kinetic analysis has also been employed to compare the dansyl-Tyr-Val-Gly (Applicants') assay to the D-Tyr-Val-Gly (prior art) assay.

[4] = pH optimum of alpha-amidating enzyme; assay type: biochemical; conditions: rat MTC tumor enzyme, N dansyl Tyr-Val-Gly substrate
Description: 2. The optimum pH for the activity of the enzyme was determined to be pH 5.0-5.5 using N dansyl Tyr-Val-Gly as the substrate (FIG. XVI). However, due to the enhanced stability of the enzyme at neutral pH, it may be beneficial to carry out the amidation reaction at such pH.

[5] = specific alpha-amidating activity, conversion of Dansyl-D-Tyr-Val-Gly to Dansyl-D-Tyr-Val-CONH2; assay type: biochemical; conditions: homogeneous peak III enzyme, rat MTC tumor
Description: These and other objects will become apparent from a thorough reading of the present disclosure. […] All specific activity units set forth herein are based upon the conversion of Dansyl-D-Try-Val-Gly-COOH to Dansyl-D-Tyr-Val-CONH2. One mU is defined as the amount of activity needed to convert one nanomole (nmole) of Dansyl-D-Tyr-Val-Gly-COOH to one nmole of Dansyl-D-Tyr-Val-CONH2 per minute at 37° C. and pH 7.0 in the presence of ascorbate ions at a concentration of 3 mM (based on total reaction mixture including enzyme, substrate, co-factors, etc.), molecular oxygen in a molar excess over substrate and a concentration of cupric ions effective to maximize activity (usually about 2 μM depending on the state of purity of the enzyme).
Each purification step can be monitored for both protein content and the level of alpha-amidation activity. This information is used to calculate the specific activity of the enzyme which serves as an indicator of the relative purity of the enzyme.
Sephacryl S-300 (Pharmacia) was equilibrated in 50 mM Tris HCl pH 7.0 and poured into a K 50/100 column (Pharmacia) according to the manufacturer's instructions. The bed volume of the column was approximately 1.3 liters. The Sample was loaded onto the column in a volume representing approximately 3 percent of the bed volume of the column. Proteins were eluted from the column in 50 mM Tris HCl pH 7.0 at a flow rate of approximately 2 ml per minute.
as §1
The samples were prepared in duplicate and incubated at 37° C. for 10, 20 and 30 minutes time periods. The enzymatic reaction was halted by the addition of 10 ul 500 mM EDTA.

[6] = iso-electric point of alpha-amidating enzyme; assay type: physicochemical
alpha-amidating enzyme [7] = target: T1, alpha-amidating enzyme; assay: co-factor requirement of alpha-amidating enzyme for maximal activity; assay type: biochemical
[8] = cited from earlier work

Molecule: recombinant hGHRF: recombinant, alpha-amidated human growth hormone releasing factor (YADAIFTNSYRKVLGQLSARKLLQDIMSRQQGESNQERGARARL-NH2; UniProt P01286 32-75, looked up)
- biological activity (and characterization) compared with synthetic hormone [1]: indistinguishable from synthetic hGHRF

Molecule: recombinant human calcitonin: purified alpha-amidated recombinant human calcitonin (CGNLSTCMLGTYTQDFNKFHTFPQTAIGVGAP-NH2; ends and bridges not checked; UniProt P01258 85-116, looked up)
- biological activity (and characterization) compared with synthetic hormone [1]: indistinguishable from synthetic human calcitonin

Molecule: monodansyl L-Tyr-Val-Gly [Dansyl-Tyr-Val-Gly]
- Km (alpha-amidating enzyme [2]; regardless of the state of purification of the enzyme): 1 to 2 µM
- Km (alpha-amidating enzyme [3]): 1.7 µM
- Vmax (alpha-amidating enzyme [3]): 21 pmol product/min/μl

B1: peak III enzyme (MTC tumor): MTC tumor alpha-amidating enzyme peak eluting at 220 mM NaCl from Mono Q pH 6.0, purified to homogeneity (protein, UniProt P14925 36-976, looked up)
Peptidylglycine …: T1 sequence (P14925 36-976)
modifications: Mono Q peak III form
- pH optimum [4]: 5.0-5.5
- specific activity [5]: 2,100 mU/mg protein
- iso-electric point (pI) [6]: 4.8
- Cu++ required for maximal activity (alpha-amidating enzyme [7]): ≤ 0.1 µM

B2: peak II enzyme (MTC tumor): MTC tumor alpha-amidating enzyme peak eluting at 200 mM NaCl from Mono Q pH 6.0 (protein, UniProt P14925 36-976, looked up)
Peptidylglycine …: T1 sequence (P14925 36-976)
modifications: Mono Q peak II form
- pH optimum [4]: 5.0-5.5
- iso-electric point (pI) [6]: approximately 5.8

B3: alpha-amidating enzyme from rat pituitaries: alpha-amidating enzyme partially purified from rat pituitaries (protein, UniProt P14925 36-976, looked up)
Peptidylglycine …: T1 sequence (P14925 36-976)
modifications: partially purified
- enzyme activity outside pH 6.5-7.5 ([8]; pH levels below 6.5 or above 7.5): declined rapidly
- pH optimum ([8]; pituitary, partially purified): 7

B4: pure tumor enzyme: pure alpha-amidating enzyme from tumor (protein, UniProt P14925 36-976, looked up)
Peptidylglycine …: T1 sequence (P14925 36-976)
- Vmax (alpha-amidating enzyme [2]; dansyl L-Tyr-Val-Gly, pure tumor enzyme): about 5000 nmol product formed per mg protein
